From patent US20230257440A1 (published 2023) come the findings set out here.

For this test, the target named is T1, RAS G12V (KRAS, HRAS or NRAS) peptide on HLA-DRA*01:01 / HLA-DRB1*01:01 (human).
T1 peptide: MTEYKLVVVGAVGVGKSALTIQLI
The test can be described thus: cytokine release. As for the experimental part: FIG. 2 is a graph showing IFN-γ secretion (spots/3e4 cells) measured by ELISPOT assay following co-culture of effector cells with target cells. […] Target cells were […] or HEK 293 cells independently transfected with one of the HLA Class II heterodimers shown. The target cells were loaded with the G12V 24-mer peptide and were cultured in the presence or absence of an antibody which blocked the respective HLA Class II molecule previously transfected. Target cells cultured with DMSO served as a negative control.
Reactivity was tested by IFNγ-secretion using ELISpot assay. […] This reactivity was blocked by an antibody which recognized the DRA*01:01/DRB1*01:01 heterodimer.

B1: 4304 TCR1 (TCR, V domains shown)
Valpha: AQRVTQPEKLLSVFKGAPVELKCNYSYSGSPELFWYVQYSRQRLQLLLRHISRESIKGFTADLNKGETSFHLKKPFAQEEDSAMYYCALLQGAQKLVFGQGTRLTINP
Vbeta: SAVISQKPSRDICQRGTSLTIQCQVDSQVTMMFWYRQQPGQSLTLIATANQGSEATYESGFVIDKFPISRPNLTFSTLTVSNMSPEDSSIYLCSVESGQDYGYTFGSGTRLTVV
Turning to B1, the binding result is given as “recognises”.
